The values below come from patent US20150307561.

In data set [1] the test system is TALE tetramer library CCTG (repeats 5-8 varied) (synthetic (Xanthomonas TALE scaffold)). In words: ELISA. Conditions: mean of 90 library clones, SE 0.03. (In general: An ELISA detects its analyte on a solid surface through an enzyme-linked reagent.)
The test system of data set [2] is TALEN L 102035 (synthetic (Xanthomonas TALE scaffold)). The data set can be described thus: cell_activity. The following applies: K562, partner TALEN R.
The subject of data set [3] is TALEN L 102209 (synthetic (Xanthomonas TALE scaffold)). In words: cell_activity. The following applies: K562, partner TALEN R.
Data set [4] concerns TALEN L 102085 (synthetic (Xanthomonas TALE scaffold)). In words: cell_activity. The following applies: K562, partner TALEN R.
Data set [5] has as its system TALEN L 102043 (synthetic (Xanthomonas TALE scaffold)). The data set can be described thus: cell_activity. Conditions: K562, partner TALEN R.
Data set [6] deals with TALEN L 102075 (synthetic (Xanthomonas TALE scaffold)). In words: cell_activity. Conditions: K562, partner TALEN R.
Data set [7] has as its system TALEN L 102210 (synthetic (Xanthomonas TALE scaffold)). The data set can be described thus: cell_activity. Conditions: K562, partner TALEN R.
Data set [8] deals with TALEN L 102203 (synthetic (Xanthomonas TALE scaffold)). The data set can be described thus: cell_activity. Conditions: K562, partner TALEN R.
The subject of data set [9] is TALEN L 102046 (synthetic (Xanthomonas TALE scaffold)). The data set can be described thus: cell_activity. Conditions: K562, partner TALEN R; 30.1 in Table 4.
Data set [10] has as its system TALEN L 102006 (synthetic (Xanthomonas TALE scaffold)). The data set can be described thus: cell_activity. The following applies: K562, partner TALEN R.
The subject of data set [11] is TALEN L 102049 (synthetic (Xanthomonas TALE scaffold)). In words: cell_activity. The following applies: K562, partner TALEN R.
The subject of data set [12] is TALEN L*, non-canonical RVDs (synthetic (Xanthomonas TALE scaffold)). In words: cell_activity. Conditions: K562, L*/R*, cold shock; 58.66 with R.
The subject of data set [13] is TALEN L 102205 (synthetic (Xanthomonas TALE scaffold)). In words: cell_activity. Conditions: K562, partner TALEN R.
Data set [14] deals with TALEN L 102216 (synthetic (Xanthomonas TALE scaffold)). The data set can be described thus: cell_activity. Conditions: K562, partner TALEN R.
Data set [15] relates to TALEN L 102041 (synthetic (Xanthomonas TALE scaffold)). In words: cell_activity. The following applies: K562, partner TALEN R.
The test system of data set [16] is TALEN L 102214 (synthetic (Xanthomonas TALE scaffold)). In words: cell_activity. Conditions: K562, partner TALEN R.
In data set [17] the test system is TALEN L 102204 (synthetic (Xanthomonas TALE scaffold)). In words: cell_activity. The following applies: K562, partner TALEN R.
Data set [18] deals with TALEN L 102066 (synthetic (Xanthomonas TALE scaffold)). In words: cell_activity. Conditions: K562, partner TALEN R.
Data set [19] concerns TALEN L 102208 (synthetic (Xanthomonas TALE scaffold)). In words: cell_activity. The following applies: K562, partner TALEN R.
The test system of data set [20] is TALEN L 102224 (synthetic (Xanthomonas TALE scaffold)). In words: cell_activity. Conditions: K562, partner TALEN R.
Data set [21] relates to TALEN L 102215 (synthetic (Xanthomonas TALE scaffold)). The data set can be described thus: cell_activity. Conditions: K562, partner TALEN R.
The subject of data set [22] is TALEN L 102077 (synthetic (Xanthomonas TALE scaffold)). The data set can be described thus: cell_activity. Conditions: K562, partner TALEN R.
Data set [23] deals with TALEN L 102072 (synthetic (Xanthomonas TALE scaffold)). In words: cell_activity. Conditions: K562, partner TALEN R.
The test system of data set [24] is TALEN L 102217 (synthetic (Xanthomonas TALE scaffold)). In words: cell_activity. The following applies: K562, partner TALEN R.
The test system of data set [25] is TALEN L 102052 (synthetic (Xanthomonas TALE scaffold)). The data set can be described thus: cell_activity. The following applies: K562, partner TALEN R.
Data set [26] deals with TALEN L 102083 (synthetic (Xanthomonas TALE scaffold)). The data set can be described thus: cell_activity. Conditions: K562, partner TALEN R.
Data set [27] relates to TALEN L 102213 (synthetic (Xanthomonas TALE scaffold)). The data set can be described thus: cell_activity. Conditions: K562, partner TALEN R.
Data set [28] relates to TALEN L 102002 (synthetic (Xanthomonas TALE scaffold)). In words: cell_activity. Conditions: K562, partner TALEN R.
Data set [29] relates to TALEN L 102206 (synthetic (Xanthomonas TALE scaffold)). The data set can be described thus: cell_activity. Conditions: K562, partner TALEN R.
Data set [30] relates to TALEN L 102056 (synthetic (Xanthomonas TALE scaffold)). The data set can be described thus: cell_activity. The following applies: K562, partner TALEN R.
The subject of data set [31] is TALEN L 102076 (synthetic (Xanthomonas TALE scaffold)). The data set can be described thus: cell_activity. Conditions: K562, partner TALEN R.
For data set [32], the system named is TALEN L 102010 (synthetic (Xanthomonas TALE scaffold)). In words: cell_activity. The following applies: K562, partner TALEN R.
Data set [33] concerns TALEN L 102211 (synthetic (Xanthomonas TALE scaffold)). In words: cell_activity. The following applies: K562, partner TALEN R.
In data set [34] the test system is TALEN L 102038 (synthetic (Xanthomonas TALE scaffold)). In words: cell_activity. The following applies: K562, partner TALEN R.
The test system of data set [35] is TALEN L 102219 (synthetic (Xanthomonas TALE scaffold)). In words: cell_activity. The following applies: K562, partner TALEN R.
Data set [36] has as its system TALEN L (L538), canonical RVDs (synthetic (Xanthomonas TALE scaffold)). In words: cell_activity. Conditions: K562, L/R, cold shock.
Data set [37] concerns TALEN L 102078 (synthetic (Xanthomonas TALE scaffold)). In words: cell_activity. Conditions: K562, partner TALEN R.
Data set [38] relates to TALEN L 102202 (synthetic (Xanthomonas TALE scaffold)). The data set can be described thus: cell_activity. The following applies: K562, partner TALEN R.

As for “CATAGTCCCCTTGACCCTGTCCTCGGTGTAGTTTTCACAGTCAGTCCACACGTC (double strand) [CCTG target]”, the binding signal (fraction of canonical control) in data set [1] was determined as 0.2.
For the sequence “TTCATTACACCTGCAGCT (double strand) [TALEN L binding site (CCR5)]”, the activity in data set [2] came to 16.8 % indels; in [3] it was 28.4 % indels; in [4], 26.1 % indels; in data set [5], 22.4 % indels; in [6] it was 10.7 % indels; in data set [7] it was 33.6 % indels. For the same sequence, the activity came out at 16.6 % indels in data set [8]; 33.6 % indels in data set [9]; 1.3 % indels in data set [10]; 25.9 % indels in [11]; 65.2 % indels in data set [12]; 40.2 % indels in data set [13]. The activity in [14] turned out to be 35.4 % indels; in data set [15], 4.2 % indels; in data set [16], 31.2 % indels; in data set [17] it was 36.6 % indels; in data set [18] it was 22.9 % indels; in [19], 27.9 % indels. Also, the activity was 38.7 % indels in [20]; 29 % indels in data set [21]; 23.8 % indels in data set [22]; 24.5 % indels in [23]; 34.5 % indels in [24]; 30.1 % indels in data set [25]. In addition, the activity in data set [26] was 27 % indels; in [27] it was 34.1 % indels; in data set [28], 20.3 % indels; in data set [29] it was 23.5 % indels; in [30], 30.9 % indels; in [31], 21.6 % indels. The activity in data set [32] amounted to 17.3 % indels; in data set [33], 23.2 % indels; in data set [34], 17.2 % indels; in [35], 37.8 % indels; in data set [36], 50.6 % indels; in data set [37], 25.1 % indels. The activity in [38] is 32.4 % indels.
